Results: paper doi:10.1101/293738 (bioRxiv, 2018)

Molecular target: T1, LonS674A labelled with Atto-488 (LonS674A*) (Caulobacter crescentus, UniProt P0CAW0 1-799, S674A, Atto-488 on lysine residues (NHS ester))
T1 sequence (looked up): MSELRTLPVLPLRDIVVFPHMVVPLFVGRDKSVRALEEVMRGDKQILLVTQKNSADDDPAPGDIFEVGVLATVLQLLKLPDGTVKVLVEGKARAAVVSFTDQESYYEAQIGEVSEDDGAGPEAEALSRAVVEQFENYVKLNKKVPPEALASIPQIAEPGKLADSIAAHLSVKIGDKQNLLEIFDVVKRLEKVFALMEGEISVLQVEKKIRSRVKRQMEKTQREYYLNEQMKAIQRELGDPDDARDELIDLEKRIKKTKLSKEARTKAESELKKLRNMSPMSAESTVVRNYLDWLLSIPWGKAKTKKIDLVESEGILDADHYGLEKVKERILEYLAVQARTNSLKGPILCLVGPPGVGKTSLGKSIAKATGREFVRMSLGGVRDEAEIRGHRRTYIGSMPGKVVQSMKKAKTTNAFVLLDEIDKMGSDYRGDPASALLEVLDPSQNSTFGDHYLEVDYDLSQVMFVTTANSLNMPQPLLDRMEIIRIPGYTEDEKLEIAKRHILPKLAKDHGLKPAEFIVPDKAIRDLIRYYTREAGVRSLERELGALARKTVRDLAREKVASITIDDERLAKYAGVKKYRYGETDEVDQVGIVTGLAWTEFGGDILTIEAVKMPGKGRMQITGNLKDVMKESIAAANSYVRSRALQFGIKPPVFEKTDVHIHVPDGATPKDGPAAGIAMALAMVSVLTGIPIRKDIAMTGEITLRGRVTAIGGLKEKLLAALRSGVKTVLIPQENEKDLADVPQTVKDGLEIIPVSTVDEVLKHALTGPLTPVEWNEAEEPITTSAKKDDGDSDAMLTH
Assay: MST

Kd: 1180 ± 85 nM
B1: CcrM DNA methyltransferase (purified recombinant) (enzyme, Caulobacter crescentus, UniProt P0CAW2 1-358, looked up)
chain: MKFGPETIIHGDCIEQMNALPEKSVDLIFADPPYNLQLGGDLLRPDNSKVDAVDDHWDQFESFAAYDKFTREWLKAARRVLKDDGAIWVIGSYHNIFRVGVAVQDLGFWILNDIVWRKSNPMPNFKGTRFANAHETLIWASKSQNAKRYTFNYDALKMANDEVQMRSDWTIPLCTGEERIKGADGQKAHPTQKPEALLYRVILSTTKPGDVILDPFFGVGTTGAAAKRLGRKFIGIEREAEYLEHAKARIAKVVPIAPEDLDVMGSKRAEPRVPFGTIVEAGLLSPGDTLYCSKGTHVAKVRPDGSITVGDLSGSIHKIGALVQSAPACNGWTYWHFKTDAGLAPIDVLRAQVRAGMN
